Test results taken from publication doi:10.1101/2022.10.19.512833 (bioRxiv, 2022).

T1: human TSG101 UEV (1-145) domain (human, UniProt Q99816 1-145)
T1 sequence (looked up): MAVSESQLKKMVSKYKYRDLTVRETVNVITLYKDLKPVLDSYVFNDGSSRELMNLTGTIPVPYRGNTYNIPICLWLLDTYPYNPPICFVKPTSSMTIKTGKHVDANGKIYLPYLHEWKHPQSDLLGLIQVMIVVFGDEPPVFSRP


Biological target: T1, human TSG101 UEV (1-145) domain
Assay: fluorescence polarisation

Binder | Kd [µM]
LQSRPEPTAPPEESFR (peptide, UniProt P04591 449-464, looked up) [GAG (HIV-1) residues 449-464, unlabeled peptide] | 15.3
APQGLIPTAPPADPAA [GAG (HIV-2) peptide, residues 450-465, unlabeled] | 6
